Assay results taken from US20230303695A1 (SHANGHAI XBH BIOTECHNOLOGY, published 2023).

Legend:
[1] = target: T1, IGSF8 protein without D1 domain (human, UniProt Q969P0 150-579, limits assumed); assay: FACS, hFc-tagged proteins on CT26 cells expressing the receptor, MFI normalized to Thy1.1
T1 construct: domain: D2-4; also called D24; D2-4
T1 sequence (looked up): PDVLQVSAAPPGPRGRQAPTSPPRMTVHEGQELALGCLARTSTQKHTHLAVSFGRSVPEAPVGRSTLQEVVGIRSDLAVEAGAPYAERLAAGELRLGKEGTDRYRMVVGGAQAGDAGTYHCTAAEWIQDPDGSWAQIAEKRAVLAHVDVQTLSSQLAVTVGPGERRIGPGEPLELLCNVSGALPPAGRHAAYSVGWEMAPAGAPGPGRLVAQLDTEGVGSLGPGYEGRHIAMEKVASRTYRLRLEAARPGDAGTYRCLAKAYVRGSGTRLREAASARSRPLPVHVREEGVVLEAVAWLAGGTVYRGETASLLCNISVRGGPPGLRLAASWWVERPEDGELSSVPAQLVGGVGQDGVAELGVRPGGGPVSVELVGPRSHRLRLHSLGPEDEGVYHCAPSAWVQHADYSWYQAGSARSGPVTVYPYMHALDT
Procedure: (§1) KLRC1 also contains a ITIM motif in its intracellular domain, and was known to be a inhibitory receptor of NK or CD8⁺ T cells as part of a heterodimer with KLRD1 on the cell surface. […] Specifically, 100,000 CT26 cells overexpressing the antigens (KIRs or KLRs) were washed with PBS buffer containing 2% FBS, and incubated with 100 μL IGSF8 recombinant proteins or antibodies (5 μg/mL) for 30 minutes on ice. Cells were then washed twice with wash buffer, and incubated with 100 μL of 1:100 anti-human Fc-PE antibody for 15 minutes on ice. Cells were washed twice with wash buffer and analyzed on a FACS analyzer (CytoFlex, Beckman). In these experiments, the mean fluorescence intensity (MFI) of IGSF8 binding to different CT26 cells were normalized by the expression of different KLRs on CT26 cells using an anti-thy1.1 mAb via flow cytometry.

[2] = target: T2, human IGSF8 expressed on the cell surface (human, UniProt Q969P0 28-613); assay: FACS on CT26 cells with forced surface expression of human IGSF8
T2 construct: whole, on cells; also called human IGSF8 on CT26 cells; IGSF8 on MC38 cells
T2 sequence (looked up): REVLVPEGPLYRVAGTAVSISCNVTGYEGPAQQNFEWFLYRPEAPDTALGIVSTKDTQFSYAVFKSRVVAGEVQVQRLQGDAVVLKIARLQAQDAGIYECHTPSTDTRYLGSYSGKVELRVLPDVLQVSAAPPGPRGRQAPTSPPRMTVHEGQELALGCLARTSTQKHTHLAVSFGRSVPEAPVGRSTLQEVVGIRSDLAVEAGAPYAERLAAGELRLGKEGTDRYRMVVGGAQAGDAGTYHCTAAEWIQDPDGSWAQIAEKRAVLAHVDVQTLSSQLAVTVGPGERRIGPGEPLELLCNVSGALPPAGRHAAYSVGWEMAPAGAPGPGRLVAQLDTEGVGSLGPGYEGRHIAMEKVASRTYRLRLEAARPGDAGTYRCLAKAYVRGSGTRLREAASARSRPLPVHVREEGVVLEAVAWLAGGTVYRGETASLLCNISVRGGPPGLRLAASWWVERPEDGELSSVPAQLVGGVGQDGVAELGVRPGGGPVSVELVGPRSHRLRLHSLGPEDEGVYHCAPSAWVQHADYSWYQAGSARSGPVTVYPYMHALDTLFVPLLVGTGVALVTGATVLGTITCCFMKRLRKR
Procedure: For antibody binding assays based on cell-expressed antigens, 100,000 cells overexpressing the antigen (either the full-length IGSF8 or the D1 domain thereof) were washed with PBS buffer containing 2% FBS, and then incubated with 100 μL of antibodies or IgG of different concentrations for 30 minutes on ice. Cells were then washed twice with wash buffer, and incubated with 100 μL of 1:100 anti-human Fc-PE antibody for 15 minutes on ice. Cells were washed twice with wash buffer and analyzed on a FACS analyzer (CytoFlex, Beckman).

[3] = target: T3, mouse IGSF8 expressed on CT26 cells (mouse, UniProt Q8R366 26-611); assay: FACS on CT26 cells
T3 construct: whole, on cells
T3 sequence (looked up): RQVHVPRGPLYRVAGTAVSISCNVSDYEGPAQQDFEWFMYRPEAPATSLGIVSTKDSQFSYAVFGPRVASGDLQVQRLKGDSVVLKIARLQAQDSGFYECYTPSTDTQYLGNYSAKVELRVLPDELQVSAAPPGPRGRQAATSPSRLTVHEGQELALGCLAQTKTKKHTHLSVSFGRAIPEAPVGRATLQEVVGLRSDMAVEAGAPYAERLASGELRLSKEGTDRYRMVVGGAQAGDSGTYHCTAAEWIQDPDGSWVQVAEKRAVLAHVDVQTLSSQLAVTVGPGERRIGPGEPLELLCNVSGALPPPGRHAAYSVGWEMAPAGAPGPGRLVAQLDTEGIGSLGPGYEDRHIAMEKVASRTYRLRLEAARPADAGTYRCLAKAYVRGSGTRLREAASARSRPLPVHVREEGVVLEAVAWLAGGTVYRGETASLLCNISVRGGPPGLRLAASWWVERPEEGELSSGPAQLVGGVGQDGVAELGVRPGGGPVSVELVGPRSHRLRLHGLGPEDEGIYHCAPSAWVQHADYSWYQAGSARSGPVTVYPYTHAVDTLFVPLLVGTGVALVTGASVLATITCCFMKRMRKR

[4] = target: T4, full-length IGSF8 (recombinant antigen of the SPR screen; IGSF8 target antigen of the phage panning) (human, UniProt Q969P0 28-579, limits assumed); assay: SPR, Biacore T100
T4 sequence (looked up): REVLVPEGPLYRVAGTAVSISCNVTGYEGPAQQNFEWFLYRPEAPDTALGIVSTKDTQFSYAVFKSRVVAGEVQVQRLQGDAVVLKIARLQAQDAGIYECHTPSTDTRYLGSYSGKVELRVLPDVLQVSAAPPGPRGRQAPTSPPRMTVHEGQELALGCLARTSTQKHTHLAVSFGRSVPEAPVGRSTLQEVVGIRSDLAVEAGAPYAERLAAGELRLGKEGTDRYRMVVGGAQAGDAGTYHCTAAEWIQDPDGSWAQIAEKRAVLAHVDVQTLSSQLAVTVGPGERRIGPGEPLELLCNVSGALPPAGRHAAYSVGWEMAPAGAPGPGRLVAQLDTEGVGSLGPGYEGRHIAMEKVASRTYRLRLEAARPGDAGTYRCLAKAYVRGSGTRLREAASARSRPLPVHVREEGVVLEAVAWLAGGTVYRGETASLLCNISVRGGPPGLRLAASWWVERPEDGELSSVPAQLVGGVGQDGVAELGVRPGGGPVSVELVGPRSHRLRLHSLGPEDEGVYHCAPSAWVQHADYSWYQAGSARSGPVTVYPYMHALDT

[5] = target: T5, D1 domain of IGSF8 (recombinant protein) (human, UniProt Q969P0 28-149, limits assumed); assay: SPR, Biacore T100
T5 construct: domain: D1 (Ig V-set domain); also called Ig V-set domain of IGSF8
T5 sequence (looked up): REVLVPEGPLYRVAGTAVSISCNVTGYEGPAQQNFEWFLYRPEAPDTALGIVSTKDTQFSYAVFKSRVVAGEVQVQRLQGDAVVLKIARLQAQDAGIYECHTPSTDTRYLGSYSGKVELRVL

[6] = target: T1, IGSF8 protein without D1 domain; assay: FACS, single antibody dose, IGSF8-D24 (D2-D4 with TM, no D1) expressed on CT26 cells
[7] = target: T6, recombinant human IGSF8 extracellular domain tagged by a human Fc region (IGSF8-hFc) (human, UniProt Q969P0 28-579, biotin label in Examples 17, 18 and 28 (site not given)); assay: FACS, biotin-labelled IGSF8-hFc on CT26 cells expressing the KIR, MFI normalized to Thy1.1
T6 construct: also called IGSF8-Fc fusion protein; IGSF8-hFc-biotin; not shown: human Fc region
T6 sequence: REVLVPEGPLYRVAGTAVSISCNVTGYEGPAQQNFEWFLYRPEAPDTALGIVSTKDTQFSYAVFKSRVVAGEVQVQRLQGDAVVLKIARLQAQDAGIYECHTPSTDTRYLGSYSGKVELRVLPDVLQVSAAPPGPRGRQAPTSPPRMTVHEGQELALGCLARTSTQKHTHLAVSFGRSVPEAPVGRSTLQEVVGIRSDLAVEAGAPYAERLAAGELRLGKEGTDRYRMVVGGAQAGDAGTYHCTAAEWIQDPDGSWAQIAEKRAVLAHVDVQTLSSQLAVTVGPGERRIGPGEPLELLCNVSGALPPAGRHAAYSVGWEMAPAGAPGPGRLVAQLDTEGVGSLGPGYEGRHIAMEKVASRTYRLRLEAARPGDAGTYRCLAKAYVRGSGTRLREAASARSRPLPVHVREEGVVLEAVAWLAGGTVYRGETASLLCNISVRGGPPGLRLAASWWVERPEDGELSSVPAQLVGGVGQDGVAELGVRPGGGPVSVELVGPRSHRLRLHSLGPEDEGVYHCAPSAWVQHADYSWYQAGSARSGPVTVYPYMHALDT
Procedure: For this experiment, different human KIR receptors (KIR2DL1, KIR2DL2, KIR2DL3, KIR2DL4, KIR2DL5A, KIR2DL5B, KIR3DL1, KIR3DL2, KIR3DL3) were first cloned into a proprietary lentiviral vector containing a thy1.1 tag (FIG. 17A). Then mouse CT26 cells, were transducted by these lentiviral constructs, and IGSF8 binding was tested with biotin-labelled recombinant IGSF8 hFc fusion protein. The mean fluorescence intensity (MFI) of IGSF8 binding to different CT26 cells were normalized by the expression of different KIRs on CT26 cells using an anti-thy1.1 mAb (Biolegend) via flow cytometry.
as §1

B1: KLRC1/KLRD1 heterodimer expressed on CT26 cells (receptor)
chain 1: not shown
chain 2: MAVFKTTLWRLISGTLGIICLSLMSTLGILLKNSFTKLSIEPAFTPGPNIELQKDSDCCSCQEKWVGYRCNCYFISSEQKTWNESRHLCASQKSSLLQLQNTDELDFMSSSQQFYWIGLSYSEEHTAWLWENGSALSQYLFPSFETFNTKNCIAYNPNGNALDESCEDKNRYICKQQLI
notes: whole, on cells; cells co-transfected with both lentiviral constructs; also called KLRC1&D1 heterodimer; KLRC1/D1
- binding result [1]: no binding

B2: Antibody C31 (B46) (antibody, V domains shown)
VH: QVQLVESGGGVVQPGRSLRLSCAASGFTFSTYGMHWVRQAPGKGLEWVAVIWDDGSYKYYGDSVKGRFTISRDNSKNTLYLQMNSLRAEDTAVYYCAGGYSYSYMAIWGKGTTVTVSS
VL: DIVLTQSPSSLSASVGDRVTITCRASQGISTFLNWYQQKPGKAPKLLIYAASSLQSGVPSRFSGSGSGTDFTLTIGSLQPEDFASYFCQQTYSTQWTFGQGTKVEIK
notes: also called mAb-B46 (C31)
- EC50 [2]: 2.08 nM
- binding result [3]: binds
- Kd [4]: 7.29 nM
- Kd [5]: < 50 nM
- binding result [6]: no binding (tested: not shown on the sheet)

B3: KIR3DL1 expressed on CT26 cells (receptor, human, UniProt P43629 22-444, looked up)
chain: HMGGQDKPFLSAWPSAVVPRGGHVTLRCHYRHRFNNFMLYKEDRIHIPIFHGRIFQESFNMSPVTTAHAGNYTCRGSHPHSPTGWSAPSNPVVIMVTGNHRKPSLLAHPGPLVKSGERVILQCWSDIMFEHFFLHKEGISKDPSRLVGQIHDGVSKANFSIGPMMLALAGTYRCYGSVTHTPYQLSAPSDPLDIVVTGPYEKPSLSAQPGPKVQAGESVTLSCSSRSSYDMYHLSREGGAHERRLPAVRKVNRTFQADFPLGPATHGGTYRCFGSFRHSPYEWSDPSDPLLVSVTGNPSSSWPSPTEPSSKSGNPRHLHILIGTSVVIILFILLLFFLLHLWCSNKKNAAVMDQEPAGNRTANSEDSDEQDPEEVTYAQLDHCVFTQRKITRPSQRPKTPPTDTILYTELPNAKPRSKVVSCP
notes: whole, on cells; lentiviral vector containing a thy1.1 tag
- binding result [7]: binds
- binding result [1]: no binding

B4: Antibody C32 (B104) (antibody, IgG1, V domains shown)
VH: QVQLVQSGAEVKRPGASVKVSCKASGYTFTNDIIHWVRQAPGQRLEWMGWINAGYGNTQYSQNFQDRVSITRDTSASTAYMELISLRSEDTAVYYCARGYYRSPTWFDWWGQGTLVTVSS
VL: ETTLTQSPSSLSASVGDRVTITCRASQSISSWLAWYQQKPGKAPKLLIYKASSLESGVPSRFSGSGSGTEFTLTISSLQPDDFATYYCQQYGDYPYTFGQGTKLEIKR
notes: also called mAb-B104 (C32)
- EC50 [2]: 5.42 nM
- binding result [3]: binds
- Kd [4]: 25.9 nM
- Kd [5]: < 50 nM
- binding result [6]: no binding (tested: not shown on the sheet)
